In publication PMC6953117:

Molecular target: giantin-WT-GFP (UniProt Q14789)
Test: atomic force microscopy (particle volumes); giantin-GFP isolated with GFP-Trap Magnetic Agarose from DMSO- or BFA-treated HeLa cells (lysate with NEM), treated with 2% β-mercaptoethanol, deposited on mica, tapping mode in air; volumes by the spherical cap model, Gaussian fit of the …
Details: remark: other sources report otherwise

Substance: giantin-WT-GFP, Q14789 1-3259
- percent of particles in the dimer peak (BFA-treated cells): 10%
- percent of particles in the dimer peak (DMSO-treated cells): 27%
- stoichiometry N: 2
